Molecular target: Tissue factor (TF) on human TNBC line MDA-MB-231 cells (human) (UniProt P13726)
Assay: cell-based or functional assay

UniProt P13726, sequence (P13726 33-295): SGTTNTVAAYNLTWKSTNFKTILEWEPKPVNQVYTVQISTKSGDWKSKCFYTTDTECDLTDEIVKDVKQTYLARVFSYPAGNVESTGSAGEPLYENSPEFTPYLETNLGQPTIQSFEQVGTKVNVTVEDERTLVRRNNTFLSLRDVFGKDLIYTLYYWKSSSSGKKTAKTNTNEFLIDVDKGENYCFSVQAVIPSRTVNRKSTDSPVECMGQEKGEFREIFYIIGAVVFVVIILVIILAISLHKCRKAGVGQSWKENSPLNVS

For “TF-targeting CAR1 monomer (hfVIIL-CD28-4-1BB-CD3zeta), expressed on NK92MI/fCD16 cells (from UniProt P10747 153-220; Q07011 214-255; P20963 52-164)”, the cytotoxicity to TNBC cells (CytoTox Homogenous Assay, E:T ratio of 10:1) was 77%.

From patent US20200352996A1
